Data from the nanobody polyreactivity screen of Harvey et al. (2022).

Test: yeast display, Sf9 membrane polyspecificity reagent, FACS + sequencing; frameworks hold sequencing errors
Outline: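 Galactose-induced (36–48 hours) yeast carrying a synthetic nanobody display library were exposed to 10% biotinylated, detergent-solubilized Sf9 membrane reagent at 4 °C for 1 hour. FACS followed streptavidin microbead enrichment, using low and high (top ~1%) gates for expression (anti-HA) and reagent binding (streptavidin). Colony PCR, MiSeq 2 × 250 sequencing and CDR-length filtering followed. Labels for polyreactivity reflect the gate of origin.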

Sequence	polyreactivity (PSR sort gate)
QVQLVESGGGLVQAGGSLRLSCAASGSIFREYAMGWYRQAPGKERELVAAITKSGGRTYYADSVKGRFTISRDNAKNTVYLQMNSLKPEDTAVYYCAADSRNSRQHTSYNRLNYWGQGTQVTVSS	high polyreactivity
QVQLVESGGGLVQAGGSLRLSCAASGSIFRFNAMGWYRQAAGKERELVAAISVRGSRTYYADSVKGRFTSSSDNAKNTVYLQMNSLKPEDTAVYYCNAEALTYSSRYDYWGQGTQVTVSS	low polyreactivity
QVQLVESGGGLVQAGGSLRLSCAASGSIFRFYTMGWYRQAPGKQRELVAAISASGGNTYYADSVKGRFTISRDNAKNTVYLQMNSLKPEDTAVYYCARVKFTKYDYWGQGTQVTVSS	high polyreactivity
QVQLVESGGGLVQAGGSLRLSCAASGSIFRFYVMGWYRPAPGKERELVAAISIGGSTNYADSVKGRFTISRDNAKNTVYLQMNSLKPEDTAVYYCAADYWYGAVLPHGTEFDYWGQGTQVTVSS	low polyreactivity
QVQLVESGGGLVQAGGSLRLSCAASGSIFRFYVMGWYRQAPGKERELVAAISIGGSTNYADSVKGRFTISRDNAKNTVFLQMNSLKPEDTAVYYCAADYWYGAGMPHGTEFDYWGQGTQVTVSS	low polyreactivity
QVQLVESGGGLVQAGGSLRLSCAASGSIFRGNAMGWYRQAPGKERELVAAITRSGGRTYYADSVKGRFTISRDNANNTVYLQMNCLKPEDTAVYFCAADYPYGSPTHFDYWGQGTQVTVSS	high polyreactivity
QVQLVESGGGLVQAGGSLRLSCAASGSIFRGNAMGWYRQAPGKERELVAAITRSGGRTYYADTVKGRFTISRDNAKNTVYLHMNSLKPEDTAVYYCAAEYYTRLGYWGQGTQVTVSS	high polyreactivity
QVQLVESGGGLVQAGGSLRLSCAASGSIFRGYAMGSYRQAPGKERELVATIDSSAGSTYYADSVKGRCTISRDNAKNTVYLQMNSLKPEDTAVYYCATDPYGYYYSGFDYWGQGTQVTVSS	low polyreactivity
QVQLVESGGGLVQAGGSLRLSCAASGSIFRGYAMGWYRQAPEKERELVAAISRRGGSTYYADSVKGRFTISRDNAKNTVYLQMNSLKPEDTAVYYCAKDGTGAGTYDYWGQGTQVTVSS	low polyreactivity
QVQLVESGGGLVQAGGSLRLSCAASGSIFRGYAMGWYRQAPGKERELVAAISWSGGSTYYADSVKGRFTISRDNAKNTVYLQMNSLKPEDTAVYYCAVEYVAYLYRMDYWGQGTQVTVSS	high polyreactivity
QVQLVESGGGLVQAGGSLRLSCAASGSIFRGYAMGWYRQAPGRERELVAAISRSGGSTYYADSVKGRFTISRDNAKNTVYLQMNSLKPEDTAVYYCAALLRGRYRMYYWGQGTQVTVSS	high polyreactivity
QVQLVESGGGLVQAGGSLRLSCAASGSIFRGYAMGWYRQAPGTERELVAAITSSAGSTYYADSVKGRFTISRDNAKNTVYLQMNSLKPEDSAVYYCNKYPRASRRGFDYWGQGTQVTVSS	high polyreactivity
QVQLVESGGGLVQAGGSLRLSCAASGSIFRGYTMGWYIQAPGKERELVAAISTRGGSTYYADSVKGRFTISRDNSKNTVYLQMNSLKPEDTAVYYCNARSRGRASGYDYWGQGTQVTVSS	high polyreactivity
QVQLVESGGGLVQAGGSLRLSCAASGSIFRGYTMGWYRQAPGKERELVAAISWSGGSTYYADSVKGRFTISRDNAKNTVYLQMNSLKPEDTAVYYCAAGDYYHRIFLWYDYWGQGTQVTVSS	low polyreactivity
QVQLVESGGGLVQAGGSLRLSCAASGSIFRHNAMGWYRQAPGKERELVAAITSRGGSTYYADSVKGRFTISRDNAKNTVYLQMNSLKPEDTAVYYCAAGGHYYSSPGYNYWGQGTQVTVSS	high polyreactivity
QVQLVESGGGLVQAGGSLRLSCAASGSIFRHNVMGWYRQAPGKERELVAAISGGGGRTYYADSVKGRFTISRDNAKNTVYLQMNSLKPEDTAVYYCNAYVGLSEGDYWGQGTQVTVSS	high polyreactivity
QVQLVESGGGLVQAGGSLRLSCAASGSIFRINAMGWYRQAPGKEREFVAAISSRGGSTYYADSVKGRFTISRDNAKNTVYLQMKSLKPEDTAVYYCAKYASVGYGRYPYDYWGQGTQVTVSS	high polyreactivity
QVQLVESGGGLVQAGGSLRLSCAASGSIFRINDMGWSRQAPGKERELVAAITFSGGSTYADSVKGRFTISRDNAKNTVYLQMNSLKPEDTAVYYCNADGAYWTDYYLYDYWGQGTQVTVSS	low polyreactivity
QVQLVESGGGLVQAGGSLRLSCAASGSIFRIYAMGWYRQAPGIERELVAAINAGGGRTYYADSVKGRFTISRDNAKNTVYLLMNSLKPEDTAVYYCAARHTEYRQESLYYWGQGTQVTVSS	low polyreactivity
QVQLVESGGGLVQAGGSLRLSCAASGSIFRIYAMGWYRQAPGKERELVAAIDSSGGSTYYADSVKGRFTISRDNAKNTVYFQMNSLKPEDTAVYYCNATFGYPFVDYDDYWGQGTQVTVSS	low polyreactivity
QVQLVESGGGLVQAGGSLRLSCAASGSIFRIYAMGWYRQAPGKERELVAAIRNSGRTYYADSVKGRFTISRDNAKNTVYLQMNSLKPEDTAVYYCAAVGGRLRGDRGGYWGQGTQVTVSS	high polyreactivity
QVQLVESGGGLVQAGGSLRLSCAASGSIFRIYAMGWYRQAPGKERELVAAISFSTGSRTYYADSVKGRFTISRDNAKNTVYLQMNSLKPEDTAVFYCNAESYYDYNYWGQGTQVTVSS	low polyreactivity

Sequence	polyreactivity (PSR sort gate)
QVQLVESGGGLVQAGGSLRLSCAASGSIFRKNAMGWYRQAPGKERELVAAITGTGRTTYADSVKGRFTISRDNAKNTVYLQMNSLKPEDTAVYYCAAEYYYRYSYTNEGDYWGQGTQVTVSS	low polyreactivity
QVQLVESGGGLVQAGGSLRLSCAASGSIFRKNAMGWYRQAPGKERELVATISGGGSTTYADSVKGRFTISRDNAKNTVYLQMNSLKPEDTADYYCAARSTWFQIRYGYWGQGTQVTVSS	high polyreactivity
QVQLVESGGGLVQAGGSLRLSCAASGSIFRKNAMGWYRQAPGKETELVAAITGSGRTTYADSVKGRFTISRDNAKNTVYLQMNSLKPEDTAVYYCAADVNYYQHRLYYWGQGTQVTVSS	low polyreactivity
QVQLVESGGGLVQAGGSLRLSCAASGSIFRKYAMGWYRQATGKERELVAAIRSSGGSTYYADSVKGRFTISRDNAKNTVYLQMNSLKPEDTSVYYWAATTGEHEDFRGQGTQVTVSS	high polyreactivity
QVQLVESGGGLVQAGGSLRLSCAASGSIFRKYVMGWYRQAPGKERELVAAISGSGGRTYYADSVKGRFTISRDNAKNTVYLQMNSLKPEDTAVSYSNAYPHAYTGSTREGDYWGQGTQVTVSS	high polyreactivity
QVQLVESGGGLVQAGGSLRLSCAASGSIFRLYGKGLYRQAPGKEREFGASITYRGGNTYYADSVKGRFTISRDNAKNTVYLQMNSLKPEDTAVYYCARSGYQKVGGFRYDYWGQGTQVTVSS	low polyreactivity
QVQLVESGGGLVQAGGSLRLSCAASGSIFRNYAMGWYRQAPGKERELVARISYSGGRTHYADSVKGRFTISRDNAKNTVYLQMNSLKPEDTAVYYCAAPFHFTHFQGNYYWGQGTQVTVSS	low polyreactivity
QVQLVESGGGLVQAGGSLRLSCAASGSIFRNYAMGWYRQAPGKERELVAVITQRGGRTYYADSVKGRFTISRDNAKNTVYLQMNSLKPEDTAVYYCAASYRGVPEYDSWGQGTQVTVSS	low polyreactivity
QVQLVESGGGLVQAGGSLRLSCAASGSIFRPNVMGWYRQEPGKERELVATISWSGGSTYYADSVKGRFTISRDNASNTVYLQMNSLKPEDTAVYYCAALWPYGYWGQGTEVTVSS	low polyreactivity
QVQLVESGGGLVQAGGSLRLSCAASGSIFRPYAMGWYRPAPGQDRELVAAISSSGGGTYYADSVKGRFTISRDNAKKTVYLQMNSLKPEDTAVYLYGSWGQGTQVTVSS	low polyreactivity
QVQLVESGGGLVQAGGSLRLSCAASGSIFRPYAMGWYRQAPGKERELVAAISWRSGRTYYADSVKGRFTISRDNAKNTVYLQMNSLKPEDTAVYYCAADLASYAYRYDYWGQGTQVTVSS	high polyreactivity
QVQLVESGGGLVQAGGSLRLSCAASGSIFRQYAMGLSRQAPGKERELVAAITYSGGNTYYADSVKGRFTISRDNAKNPVYLQLNSLKPEDTAVYYCAADYGSRSWEYTYWGQGTQVTVSS	low polyreactivity
QVQLVESGGGLVQAGGSLRLSCAASGSIFRQYAMGWYRQAPPKDRELVAAISSVGRTYYADSVKGRFTISRDNAKNTVYLQMNSLKPEDTAVYYCAARPYKFARYDYWGQGTQVTVSS	high polyreactivity
QVQLVESGGGLVQAGGSLRLSCAASGSIFRRNSMGWYRPAPGKERELVAAISSIGSSTYYADSVKGRFTISRDNAKNTVYLQMNSLKPEDTAVYYCAALYVQGSHTYGYWGQGTQVTVSS	high polyreactivity
QVQLVESGGGLVQAGGSLRLSCAASGSIFRRYALGWYRQAPGKERELVAAISYSGGSTYYADSVKGRFTISRDNAKNTVYLQMNSLKPEDTAVYYCAVVTRKGLYDYWGQGTQVTGSS	high polyreactivity
QVQLVESGGGLVQAGGSLRLSCAASGSIFRRYAMGWYRPAPGKERELVAAITNRGGTTYYADSVKGRFTISRDNAKNTVYLQMNSLNPEDTAVYYCATALWVRYYGQGGYIRRYDYWGQGTQVTVSS	high polyreactivity
QVQLVESGGGLVQAGGSLRLSCAASGSIFRRYAMGWYRPAPGTERELVAAISYSGGSTYYADSVKGRFTISRDNAKNTVYLQMNSLKPEDTAVYYCAADESRYDYWGQGTQVTVSS	high polyreactivity
QVQLVESGGGLVQAGGSLRLSCAASGSIFRRYAMGWYRQAPGKERELVAAISSNGGSTYYADSVKGRFTISRDNAKNTVYLQMNSLKPEDTAVYYCNAPPLYRDEYWGQGTQVTVSS	high polyreactivity
QVQLVESGGGLVQAGGSLRLSCAASGSIFRSNAMGWYRQAAGKERELVAAIDYSGTSTTYADSVKGRFTISRDNAKNTVYLQMNSLKPEDTAVYYCNADGYYRGYWSGYEYWGQGTQVTVSS	low polyreactivity
QVQLVESGGGLVQAGGSLRLSCAASGSIFRSNAMGWYRQAPGKEREFVAAITSRSSSTYYADSVKGRFTISRDNAKNTVYLQMNSLKPEDTAVYYCAARYQHYFTGGDYWGQGTQVTVSS	low polyreactivity
QVQLVESGGGLVQAGGSLRLSCAASGSIFRSNAMGWYRQAPGKERELVAAITQSGDTTNYADSVKGRFTISRDNAKNTVYLQMNSLKPEDTAVYYCNADTDRYWPYEYDYWGQGTQVTVSS	low polyreactivity
